Measured values as given in patent publication US11912781B2, “Humanized complement 5A receptor 1 antibodies and methods of use thereof” (VISTERRA, INC., priority 2021, dated 2024).

Assays:
C5aR1 [1] = biological target: T1, C5aR1 (Homo sapiens, UniProt P21730); assay: GeneBLAzer assay, inhibition of Gα signaling; format: cell-based
T1 sequence (P21730 1-350): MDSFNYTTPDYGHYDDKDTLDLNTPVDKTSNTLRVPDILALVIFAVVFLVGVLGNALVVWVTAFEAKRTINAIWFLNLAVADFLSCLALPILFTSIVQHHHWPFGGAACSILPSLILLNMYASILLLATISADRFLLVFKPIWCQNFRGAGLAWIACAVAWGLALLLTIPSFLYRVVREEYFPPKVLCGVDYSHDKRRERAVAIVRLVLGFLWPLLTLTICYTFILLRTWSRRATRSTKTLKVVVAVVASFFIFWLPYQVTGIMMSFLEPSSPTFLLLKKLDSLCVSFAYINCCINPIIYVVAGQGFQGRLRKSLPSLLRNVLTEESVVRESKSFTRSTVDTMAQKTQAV
Method: The GeneBLAzer assay kit and C5aR1 cell line were commercially available from Thermo Fisher (Catalog #K1544). The assay was performed as recommend by the manufacturer. Briefly, antibodies or antagonists were incubated for 30 minutes at increasing concentrations at 37° C. C5a was then added to the cells and incubated at 37° C. for an additional 4-5 hours. Beta-lactamase substrate was then added and incubated for 2 hours at room temperature. Fluorescent measurements for each well with an excitation/emission of 409/460 (blue) and 409/530 (green) were measured. An increase in the blue to green ratio was proportional to C5aR1 activation and was used to calculate the percent of activation for the cells in each well. The C5aR1 activation profile was monitored under increasing antagonist concentration. The IC50 was determined by plotting the percentage of signal against concentration of the antagonist.
This experiment was done as detailed in Example 2.

CD11b = assay: Inhibition of CD11b expression in neutrophils; format: cell-based, human; conditions: range of C5a concentrations
Excerpt: CD11b, an integrin receptor, is mobilized to the surface of neutrophils in response to C5a activation and mediates intravascular crawling prior to neutrophil transmigration. CD11 is involved in numerous adhesion-related associations between cells such as monocytes, macrophages, natural killer (NK) cells, and granulocytes.
The experimental details of this determining CD11 expression are described in Example 5.

squirrel monkeys = assay: C5a-induced neutropenia in squirrel monkeys; format: in vivo, squirrel monkey; conditions: antibody 10 mg/kg or avacopan 30 mg/kg IV 1 h before 0.1 mg/kg human C5a, 1 min post-C5a
Method: Briefly, three groups of squirrel monkeys were evaluated for inhibition of neutropenia. In the first group, 8 squirrel monkeys were injected with PBS (vehicle), intravenously. In the second group 8 squirrel monkeys were injected with exemplary antibodies at a dose of 10 mg/kg, intravenously. In the third group, group 8 squirrel monkeys were injected with avacopan at a dose of 30 mg/kg, intravenously. One hour after injection of the PBS, exemplary antibodies or avacopan, 0.1 mg/kg of human C5a was injected into the squirrel monkeys. The blood was collected after 1 min, 5 min 15 min, 2 hr and 6 hr after injection of human C5a. The percent change in neutrophils and average change in neutrophils were calculated in all three groups and are shown in FIG. 14B, as scatter plot.

C5aR1 [2] = biological target: T1, C5aR1; assay: β-arrestin2 recruitment, two-subunit luciferase reporter; format: cell-based; parameters: expressed in transfected cells
Excerpt: The β-arrestin assay utilized a proprietary two-subunit luciferase reporter system: one subunit is fused to C5aR1 and one subunit is fused to β-arrestin2. When in close proximity, the two subunits formed an enzyme that generates a luminescent signal, used as a proxy for C5aR1-mediated recruitment of β-arrestin2.
The experimental details of this determining β-arrestin recruitment are described in Example 6. […] Table 14 summarizes the […] of inhibition of β-arrestin recruitment.

tMCAO mice = assay: tMCAO stroke mouse model, infarct volume; format: in vivo; conditions: antibodies 20 mg/kg, PMX53 1 mg/kg
Method: 1 mg/kg PMX53 was used as a control. The brain was resected, cut into slices and stained with TTC. The stained cross sections were analyzed by imaging.

U937-C5aR1 cells = assay: Binding to U937-C5aR1 cells; conditions: two antibody preparations
human neutrophils = assay: Binding to human neutrophils; conditions: two antibody preparations
[3] = Pharmacokinetics in Tg32 mice; format: in vivo, mouse; conditions: 5 mg/kg IV
Method: (§1) 5 mg/kg of exemplary monospecific and biparatopic antibodies were injected intravenously into Tg32 mice. The amount of the antibody in the serum was evaluated over a period of 500 hours. […] FIG. 16B-16D show the stability of the anti-C5aR1 antibodies in the serum of 5 different mice for 500 hours. […] The tetravalent antibodies have slightly lower persistence in serum as compared to the monospecific antibody. Motavizumab was used as a control.
Tg32 mice are a transgenic model in which human FcRn replaces native mouse FcRn. FcRn is necessary for the bidirectional transport of Abs across cellular barriers, influencing PK. Tg32 mice with human FcRn have been extensively studied and thought to correlate with PK in humans. The goal of this experiment was to assess FcRn-mediated recycling of IgG-scFv vs IgG formats and assess any impact of introducing Fc domain modifications on FcRn mediated recycling.
5 mg/kg of exemplary monospecific and biparatopic antibodies were injected intravenously into Tg32 mice. The percentage of antibody in the serum was determined using art-recognized assays. MVZ-IgG4-VFc17, a motavizumab antibody with IgG4 Fc and same Fc modifications as the C5aR1 antibodies, was used as a control. Further PK/PD analyses were carried out using CERTARA.

[4] = Pharmacokinetics in human C5aR1 knock-in mice; format: in vivo, mouse; conditions: hC5aR1 mice, 20 mg/kg
Method: as §1
Target-Mediated Drug Disposition (TMDD) is evident for both exemplary C5aR1 antibodies with modified Fc domains. TMDD is the phenomenon in which a drug binds with high affinity to its pharmacological target site (such as a receptor) to such an extent that this affects its pharmacokinetic (PK) characteristics. The target binding and subsequent elimination of the drug-target complexes could affect both drug distribution and elimination, and result in nonlinearity of PK in a dose-dependent manner.
The target binding and subsequent elimination of the drug-target complexes could affect both drug distribution and elimination, and result in nonlinearity of PK in a dose-dependent manner. FIG. 30A-30F show antibody persistence was dose-dependent. […] FIG. 30F is in silico graphical representation of isotype control antibody over a period of 500 hours at a concentration of 20 mg/Kg. Non-naïve mice were administered multiple dosing of the mAbs once weekly over 4 total weeks.

C5aR1 [5] = biological target: T1, C5aR1; assay: Binding kinetics and internalization with or without sodium azide; conditions: with or without 20 mM sodium azide
Method: The Example seeks to verify that the internalization of the C5aR1 antibodies is specific and not due to non-specific clustering of the membrane immunoglobulin. Sodium azide is a metabolic inhibitor, and inhibits internalization or endocytosis as these are energy dependent processes. Any metabolic dependency on the internalization of exemplary C5aR1 antibodies were probed using 10 nM C5aR1 antibodies in the presence or absence of 20 mM sodium azide.

## Cc1ccc(NC(=O)[C@H]2CCCN(C(=O)c3c(C)cccc3F)[C@H]2c2ccc(NC3CCCC3)cc2)cc1C(F)(F)F [Avacopan]
C5aR1 [1]; read-out: IC50 (nM) 10 nM C5a, Gα signaling, 10 nM C5a, Table 13
  IC50: 2.2 nM
C5aR1 [1]; read-out: IC50 (nM) 100 nM C5a, Gα signaling, extrapolated data, 100 nM C5a, Table 13, extrapolated
  IC50: 0.7 nM
CD11b
  inhibition of CD11b expression: only partially potent
Squirrel monkeys
  average reduction in neutrophil counts from baseline: 59%
C5aR1 [2]; 10 nM C5a, Table 9, read-out: IC50 for β-arrestin signaling
  IC50: 9.95 nM
C5aR1 [2]; 100 nM C5a, Table 9, read-out: IC50 for β-arrestin signaling
  IC50: 3.25 nM
C5aR1 [2]; C5a concentrations increase to 10 nM
  potency in β-arrestin2 recruitment as C5a increases: lost potency
C5aR1 [2]; read-out: IC50 (nM) at 100 nM C5a, beta-arrestin inhibition, 100 nM C5a, Table 14
  IC50: 34 nM

## PMX53 [reference compound]
tMCAO mice
  infarct volume compared to the vehicle group: only slightly reduced infarct volume

## motavizumab [reference compound]
U937-C5aR1 cells
  EC50 of U937-C5aR1 binding: No Binding
Human neutrophils
  EC50 of human neutrophil binding: No Binding

B1: Isotype CTL: a motavizumab antibody with IgG4 Fc and same Fc modifications as the C5aR1 antibodies, used as a control (antibody, chains of the INN, looked up, V domains shown)
VH: QVTLRESGPALVKPTQTLTLTCTFSGFSLSTAGMSVGWIRQPPGKALEWLADIWWDDKKHYNPSLKDRLTISKDTSKNQVVLKVTNMDPADTATYYCARDMIFNFYFDVWGQGTTVTVSS
VL: DIQMTQSPSTLSASVGDRVTITCSASSRVGYMHWYQQKPGKAPKLLIYDTSKLASGVPSRFSGSGSGTEFTLTISSLQPDDFATYYCFQGSGYPFTFGGGTKVEIK
modifications: IgG4 Fc modifications
notes: a motavizumab antibody with IgG4 Fc and same Fc modifications as the C5aR1 antibodies, used as a control
[3]; GeoMean
  AUC0-24: 1620 µg·h/mL
  AUCinf: 16900 µg·h/mL
  AUClast: 13100 µg·h/mL
  CL: 7.08 mL/day/kg
  Cmax: 131 µg/mL
  V: 0.104 L/kg
[3]; Median
  t1/2: 259 h
  tlast: 504 h
[4]; GeoMean
  AUC0-24: 7130 µg·h/mL
  AUCinf: 66200 µg·h/mL
  AUClast: 55800 µg·h/mL
  CL: 7.25 mL/day/kg
  Cmax: 453 µg/mL
  V: 0.06 L/kg
[4]; Median
  t1/2: 127 h
  tlast: 504 h

B2: c2139-e1711: biparatopic anti-C5aR1 antibody, VH1 SEQ ID NO: 14, VL1 SEQ ID NO: 25, VH2 SEQ ID NO: 16, VL2 SEQ ID NO: 17 (antibody, V domains shown)
VH 1: QVQLVQSGAEVKKPGASVKVSCKASGYTFTNYWMHWVRQAPGQGLEWMGYLNPSSGYTKYAQKFQGRVTMTRDTSTSTVYMELSSLRSEDTAVYYCTRSGGDNYGNPYYFDRWGQGTTVTVSS
VL 1: DVQMTQSPSSLSASVGDRVTITCRASQSIVHSNGNTYLHWYQQKPGKAPKFLIYKVSNRFSGVPSRFSGSGSGTDFTLTISSLQPEDFATYYCAQYTLVPLTFGQGTKLEIK
VH 2: EVQLVESGGGLIQPGGSLRLSCAASGFTFNAYAMSWVRQAPGKCLEWVSSISTGGNTYYADSVKGRFTISRDNSKNTLYLQMNSLRAEDTAVYYCTRGYQRFSGFAYWGQGTLVTVSS
VL 2: EIVLTQSPATLSLSPGERATLSCRSSQSLVHSNGNTYLNWYQQKPGQAPRLLIYKVSNRLSGIPARFSGSGSGTDFTLTISSLEPEDFAVYYCSQSTHVPYTFGCGTKLEIK
C5aR1 [5]
  internalization: undergoes internalization during association
